We go through three molecules from patent JP2008232916A.

For test [1], the target named is T1, 配列番号16のアルファヘリカルペプチド (peptide containing the second helix peptide of the heterodimer), displayed on 15 nm gold particles.
T1 sequence (peptide): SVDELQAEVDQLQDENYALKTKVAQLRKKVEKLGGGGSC
Briefly: gold nanoparticle aggregation: 500 nM free SEQ 15 added to SEQ 16 particles, absorption spectrum.

For test [2], the target named is T2, 配列番号2のアルファヘリカルペプチド (second helix peptide), displayed on 15 nm gold particles.
T2 sequence (peptide): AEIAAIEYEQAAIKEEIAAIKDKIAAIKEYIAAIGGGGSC
Put plainly: gold nanoparticle aggregation: 500 nM free SEQ 1 added to mixed SEQ 2 and SEQ 3 particles; the read-out belongs to the three-peptide complex.

Test [3] concerns the target 配列番号3のアルファヘリカルペプチド (third helix peptide), displayed on 15 nm gold particles. The test is described as above.
Test [4] addresses T2, 配列番号2のアルファヘリカルペプチド (second helix peptide), displayed on 15 nm gold particles. Briefly: gold nanoparticle aggregation: 100 µl E. coli lysate supernatant added to 1 ml mixed SEQ 2 and SEQ 3 particles; the read-out belongs to the three-peptide complex.
The target in test [5] is 配列番号3のアルファヘリカルペプチド (third helix peptide), displayed on 15 nm gold particles. The test is described as above.

B1: 配列番号15で示されるペプチド (first helix peptide of a heterodimer, SEQ ID NO 13, fused in tandem to both ends of the linker SEQ ID NO 14) (peptide)
peptide: TVAQLEEKVKTLRAQNYELKSRVQRLREQVAQLAGGGGSGGGGSGGGGSTVAQLEEKVKTLRAQNYELKSRVQRLREQVAQLA
Molecule B1 gave an absorption maximum of the gold colloid after addition (about 525 nm before) in test [1] of 550 nm. Consider AEIAAIKYKQAAIKNEIAAIKQEIAAIEQMIAAI [配列番号1で示されるアルファヘリカルペプチド (first helix peptide of the heterotrimeric alpha-helical coiled coil)], for which the absorption maximum of the gold colloid after addition (525 nm before) in test [2] and in test [3] was 555 nm in each case.

B2: アルカリフォスファターゼ(配列番号5)と配列番号1のアルファヘリックスとの融合ペプチド(配列番号8) (enzyme)
chain: RTPEMPVLENRAAQGDITAPGGARRLTGDQTAALRDSLSDKPAKNIILLIGDGMGDSEITAARNYAEGAGGFFKGIDALPLTGQYTHYALNKKTGKPDYVTDSAASATAWSTGVKTYNGALGVDIHEKDHPTILEMAKASGLATGNVSTAELQDATPAALVAHVTSRKCYGPSATSEKCPGNALEKGGKGSITEQLLNARADVTLGGGAKTFAETATAGEWQGKTLREQAQARGYQLVNDAASLNAVTEANQQKPLLGLFADGNMPVRWLGPKATYHGNIDKPAVTCTPNPQRNDSVPTLAQMTDKAIELLSKNEKGFFLQVEGASIDKQDHAANPCGQIGETVDLDEAVQRALEFAKKDGNTLVIVTADHAHASQIVAPDTKAPGLTQALNTKDGAVMVMSYGNSEEDSQEHTGSQLRIAAYGPHAANVVGLTDQTDLFYTMKAALGLKGGGSGGGSGGGSLVPRGSAEIAAIKYKQAAIKNEIAAIKQEIAAIEQMIAAI
As to B2, the absorption maximum of the gold colloid after addition in test [4] and in test [5] was 555 nm throughout.
